Experimental findings from patent publication US20020025510A1, “Screening methods based on superactivated alpha V beta 3 integrin” (priority 2000, published 2002) are described below.

One test deals with β3 integrin subunit. The test is described as follows: Immunoprecipitation and Western blotting of the β3 integrin subunit from surface-biotinylated cells. The test is classed as cell-based, human. Conditions: cells incubated with 50 μM for 48 hours; precipitated with mAb L230; 90 kDa without inhibitor. On the procedure:
Immunoprecipitation and Western blotting were performed as follows. Confluent cells were surface biotinylated with 0.1 mg/ml of Sulfo-NHS-LC-Biotin (Pierce, Rockford, Ill.). Where indicated, the cells were incubated prior to biotinylation with 50 μM Batimastat for 48 hours in AIM-V medium (GibcoBRL). Cells were solubilized at 10^7/ml in lysis buffer (50 mM n-octyl-(-D-glucopyranoside in 50 mM TBS, pH 7.4/1 mM CaCl2/1 mM MgCl2/1 mM PMSF/10 μg/ml leupeptin/10 μg/ml pepstatin) for one hr on ice. Insoluble material was removed by centrifugation. Supernatants were precleared for two hours at 4° C. with Protein A-Agarose (Calbiochem, La Jolla, Calif.). Precleared supernatants (100-150 μl) were incubated overnight at 4° C. with 3 μg of the indicated antibodies. The immune complexes were collected on Protein A-Agarose 15 μl of a 50% slurry) during a two hour incubation at room temperature. Following washes with washing buffer (50 mM Tris, pH 7.4/0.5 M NaCl/0.1% Tween 20), the beads were treated with 4% SDS in 125 mM Tris, pH 6.8/20% glycerol buffer, and boiled. […]
(In general: In western blotting, separated proteins are transferred to a membrane and probed.)

In test [1] the target is integrin αvβ3 with the wild type β3 subunit, on β3-MCF7 cells (human) (UniProt P06756). The test is described as follows: flow cytometry, β3-MCF7 cells stained with 5 µg/ml LM609, n=11. On the technique in general: A flow cytometer gives signals particle by particle.
Test [2] concerns the target integrin αvβ3 modified by MT1-MMP, on β3/MT-MCF7 cells (human) (UniProt P06756). The test is described as follows: flow cytometry, β3/MT-MCF7 cells stained with 5 µg/ml LM609, n=11.
The target is the same in test [3]. Briefly: cell-based or functional assay.

Sequence of UniProt P06756 (P06756 31-1048 limits assumed, chain 1 of 2): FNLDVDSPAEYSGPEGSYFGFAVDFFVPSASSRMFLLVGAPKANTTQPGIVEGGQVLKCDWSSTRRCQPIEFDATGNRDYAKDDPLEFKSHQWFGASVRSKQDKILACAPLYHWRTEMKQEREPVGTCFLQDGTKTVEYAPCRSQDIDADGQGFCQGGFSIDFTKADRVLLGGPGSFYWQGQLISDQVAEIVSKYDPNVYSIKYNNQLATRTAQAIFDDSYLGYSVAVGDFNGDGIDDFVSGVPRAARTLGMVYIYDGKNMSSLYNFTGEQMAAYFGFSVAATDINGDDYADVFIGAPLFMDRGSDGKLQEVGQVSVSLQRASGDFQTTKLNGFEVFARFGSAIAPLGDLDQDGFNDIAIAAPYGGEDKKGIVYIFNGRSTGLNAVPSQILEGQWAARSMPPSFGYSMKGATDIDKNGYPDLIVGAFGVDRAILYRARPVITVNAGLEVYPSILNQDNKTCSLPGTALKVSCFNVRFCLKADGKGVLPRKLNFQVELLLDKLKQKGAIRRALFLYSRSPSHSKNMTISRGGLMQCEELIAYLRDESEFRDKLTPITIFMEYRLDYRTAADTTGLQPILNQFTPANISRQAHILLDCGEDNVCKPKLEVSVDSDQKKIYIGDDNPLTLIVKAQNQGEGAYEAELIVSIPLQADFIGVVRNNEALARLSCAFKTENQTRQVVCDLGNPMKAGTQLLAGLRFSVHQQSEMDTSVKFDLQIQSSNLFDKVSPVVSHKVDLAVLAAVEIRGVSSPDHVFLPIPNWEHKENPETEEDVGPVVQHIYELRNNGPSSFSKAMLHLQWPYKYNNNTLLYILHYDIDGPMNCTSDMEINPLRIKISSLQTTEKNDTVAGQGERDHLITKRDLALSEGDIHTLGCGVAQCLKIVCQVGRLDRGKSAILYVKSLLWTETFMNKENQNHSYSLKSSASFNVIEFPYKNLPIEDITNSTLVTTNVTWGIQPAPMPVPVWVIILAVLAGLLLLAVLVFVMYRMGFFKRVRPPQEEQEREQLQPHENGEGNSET
Sequence of UniProt P06756 (chain, as listed by the source limits assumed, chain 2 of 2): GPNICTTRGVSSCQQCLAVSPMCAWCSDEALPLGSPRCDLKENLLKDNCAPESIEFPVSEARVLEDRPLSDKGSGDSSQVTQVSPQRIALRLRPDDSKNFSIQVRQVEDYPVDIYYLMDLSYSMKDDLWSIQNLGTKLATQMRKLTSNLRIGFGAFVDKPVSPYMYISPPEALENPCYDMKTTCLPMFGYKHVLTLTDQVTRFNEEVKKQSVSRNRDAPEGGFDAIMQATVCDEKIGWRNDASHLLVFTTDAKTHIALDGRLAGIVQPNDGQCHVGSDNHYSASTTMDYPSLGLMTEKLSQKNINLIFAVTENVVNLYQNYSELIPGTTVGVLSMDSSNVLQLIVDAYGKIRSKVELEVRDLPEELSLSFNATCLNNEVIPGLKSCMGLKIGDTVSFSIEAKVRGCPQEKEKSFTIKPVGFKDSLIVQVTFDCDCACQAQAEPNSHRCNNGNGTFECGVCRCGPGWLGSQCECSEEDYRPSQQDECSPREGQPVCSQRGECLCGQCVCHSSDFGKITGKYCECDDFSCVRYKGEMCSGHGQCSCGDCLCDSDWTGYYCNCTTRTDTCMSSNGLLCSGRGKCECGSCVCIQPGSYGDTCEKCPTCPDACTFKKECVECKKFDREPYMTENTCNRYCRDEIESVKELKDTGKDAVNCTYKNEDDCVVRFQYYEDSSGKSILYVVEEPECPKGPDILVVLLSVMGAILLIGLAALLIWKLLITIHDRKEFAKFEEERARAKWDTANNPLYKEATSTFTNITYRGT

Consider `CNC(=O)[C@H](Cc1ccccc1)NC(=O)[C@H](CC(C)C)[C@H](CSc1cccs1)C(=O)NO` [Batimastat], for which the “Apparent molecular mass of the β3 integrin subunit from β3/MT-MCF7 cells” value in the test on β3 integrin subunit was found to be 95 kDa.

As for “murine mAb LM609 specific to integrin αvβ3 (antibody)”, the results for the mean fluorescence intensity in test [1] and in test [2] were 38.7 and 35.5, respectively.

On to “vitronectin (from UniProt P04004 20-478) (ligand)”, for which the cells migrating to the vitronectin-coated membrane undersurface (Transwell, 48 hours) in test [3] was 23300 cells.
